Where two headings read alike, the source gives them in different places. Residues, ends and D or L forms follow the SMILES beside them.
Experiments:
[1] = biodistribution in mice with CCK2R-positive xenografts; format: in vivo, female CD1-nu mice; conditions: female, CD1-nu, mouse, total radioactivity; for tissue uptake at 4 h / tissue uptake at 24 h / tissue uptake at 1 h: in vivo
Description: (§1) Procedures for biodistribution studies with ^177Lu-labeled conjugates (10 pmol, 100 µL, 0.1 µM in PBS, 0.5 MBq, 1 µg/kg) in female CD1-nu mice with xenografts of A431-CCK2R cells at 1, 4, and 24 h p.i., as well as blocking experiments at 4 h p.i. with a 6000-fold excess of minigastrin have been reported previously and were followed without modifications. Statistical analysis was performed via GraphPad Prism using two-sided analysis of variance. n = 4 animals per group.

[2] = system: xenografts of A431-CCK2R cells; assay: as above; format: in vivo, female CD1-nu mice
Description: as §1

[3] = 10 pmol, Stomach (CCK2R-positive) uptake
[4] = 10 pmol, Tumor (CCK2R-positive) uptake
[5] = tumor / blood, 10 pmol, read-out: Tumor-to-Blood ratio
[6] = tumor / kidneys, 10 pmol, read-out: Tumor-to-Kidneys ratio
[7] = tumor / muscle, 10 pmol, read-out: Tumor-to-Muscle ratio
[8] = tumor / stomach, 10 pmol, read-out: Tumor-to-Stomach ratio
[9] = female, CD1-nu, mouse, in vivo, 10 pmol, 4 h

CCCC[C@H](NC(=O)[C@H](Cc1c[nH]c2ccccc12)NC(=O)Cn1cc([C@H](Cc2ccc(O)cc2)NC(=O)[C@H](C)NC(=O)[C@@H](CCC(=O)O)NC(=O)[C@@H](CCC(=O)O)NC(=O)[C@@H](CCC(=O)O)NC(=O)[C@@H](CCC(=O)O)NC(=O)[C@@H](CCC(=O)O)NC(=O)[C@@H](CCC(=O)O)NC(=O)CN2CCN(CC(=O)O)CCN(CC(=O)O)CCN(CC(=O)O)CC2)nn1)C(=O)N[C@@H](CC(=O)O)C(=O)N[C@@H](Cc1ccccc1)C(N)=O [NMG 2, DOTA-(DGlu)6-Ala-Tyr-Ψ[Tz]-Gly-Trp-Nle-Asp-Phe-NH2] (HELM PEPTIDE1{[O=C(O)CN1CCN(CC(=O)O)CCN(CC(=O)[*:2])CCN(CC(=O)O)CC1].[dE].[dE].[dE].[dE].[dE].[dE].A.[O=C(Cn1cc([C@H](Cc2ccc(O)cc2)N[*:1])nn1)[*:2]].W.[Nle].D.F.[am]}$$$$V2.0)
tissue uptake at 4 h ([1]; 10 pmol, Blood uptake): 0.01 %ID/g
tissue uptake at 24 h ([1]; 10 pmol, Blood uptake): < 0.01 %ID/g
tissue uptake at 1 h ([1]; 10 pmol, Bone uptake): 0.29 %ID/g
tissue uptake at 4 h ([1]; 10 pmol, Bone uptake): 0.1 %ID/g
tissue uptake at 24 h ([1]; 10 pmol, Bone uptake): 0.07 %ID/g
tissue uptake at 1 h ([1]; 10 pmol, Heart uptake): 0.07 %ID/g
tissue uptake at 4 h ([1]; 10 pmol, Heart uptake): 0.02 %ID/g
tissue uptake at 24 h ([1]; 10 pmol, Heart uptake): 0.01 %ID/g
tissue uptake at 1 h ([1]; 10 pmol, Intestines uptake): 0.15 %ID/g
tissue uptake at 4 h ([1]; 10 pmol, Intestines uptake): 0.07 %ID/g
tissue uptake at 24 h ([1]; 10 pmol, Intestines uptake): 0.06 %ID/g
tissue uptake at 1 h ([1]; 10 pmol, Kidneys uptake): 2.19 %ID/g
tissue uptake at 4 h ([1]; 10 pmol, Kidneys uptake): 2.07 %ID/g
tissue uptake at 24 h ([1]; 10 pmol, Kidneys uptake): 1.33 %ID/g
tissue uptake at 1 h ([1]; 10 pmol, Liver uptake): 0.11 %ID/g
tissue uptake at 4 h ([1]; 10 pmol, Liver uptake): 0.05 %ID/g
tissue uptake at 24 h ([1]; 10 pmol, Liver uptake): 0.03 %ID/g
tissue uptake at 1 h ([1]; 10 pmol, Lung uptake): 0.18 %ID/g
tissue uptake at 4 h ([1]; 10 pmol, Lung uptake): 0.04 %ID/g
tissue uptake at 24 h ([1]; 10 pmol, Lung uptake): 0.02 %ID/g
tissue uptake at 1 h ([1]; 10 pmol, Muscle uptake): 0.05 %ID/g
tissue uptake at 4 h ([1]; 10 pmol, Muscle uptake): 0.01 %ID/g
tissue uptake at 24 h ([1]; 10 pmol, Muscle uptake): 0.01 %ID/g
tissue uptake at 1 h ([1]; 10 pmol, Pancreas uptake): 0.33 %ID/g
tissue uptake at 4 h ([1]; 10 pmol, Pancreas uptake): 0.28 %ID/g
tissue uptake at 24 h ([1]; 10 pmol, Pancreas uptake): 0.17 %ID/g
tissue uptake at 1 h ([1]; 10 pmol, Spleen uptake): 0.06 %ID/g
tissue uptake at 4 h ([1]; 10 pmol, Spleen uptake): 0.03 %ID/g
tissue uptake at 24 h ([1]; 10 pmol, Spleen uptake): 0.02 %ID/g
tissue uptake at 1 h [1, 3]: 2.85 %ID/g
tissue uptake at 4 h [1, 3]: 2.66 %ID/g
tissue uptake at 24 h [1, 3]: 1.63 %ID/g
tissue uptake at 1 h [1, 4]: 5.94 %ID/g
tissue uptake at 4 h [1, 4]: 7.15 %ID/g
tissue uptake at 24 h [1, 4]: 4.73 %ID/g
tissue uptake at 4 h ([1]; Blood uptake): 0.01 %ID/g
tissue uptake at 4 h ([1]; Heart uptake): 0.02 %ID/g
tissue uptake at 4 h ([1]; Intestines uptake): 0.1 %ID/g
tissue uptake at 4 h ([1]; Kidneys uptake): 2.24 %ID/g
tissue uptake at 4 h ([1]; Liver uptake): 0.06 %ID/g
tissue uptake at 4 h ([1]; Lung uptake): 0.04 %ID/g
tissue uptake at 4 h ([1]; Pancreas uptake): 0.06 %ID/g
tissue uptake at 4 h ([1]; Spleen uptake): 0.03 %ID/g
tissue uptake at 4 h ([1]; Stomach (CCK2R-positive) uptake): 0.46 %ID/g
tissue uptake at 4 h ([1]; Tumor (CCK2R-positive) uptake): 2.54 %ID/g
tissue to tissue ratio at 1 h [1, 5]: 31.1 ± 10.3
tissue to tissue ratio at 4 h [1, 5]: 715 ± 133
tissue to tissue ratio at 24 h [1, 5]: 4260 ± 1690
tissue to tissue ratio at 1 h [1, 6]: 2.76 ± 0.79
tissue to tissue ratio at 4 h [1, 6]: 3.5 ± 0.54
tissue to tissue ratio at 24 h [1, 6]: 3.78 ± 1.48
tissue to tissue ratio at 1 h [1, 7]: 124 ± 42.1
tissue to tissue ratio at 4 h [1, 7]: 715 ± 133
tissue to tissue ratio at 24 h [1, 7]: 441 ± 73.7
tissue to tissue ratio at 1 h [1, 8]: 2.68 ± 1.57
tissue to tissue ratio at 4 h [1, 8]: 3.08 ± 1.1
tissue to tissue ratio at 24 h [1, 8]: 3.13 ± 1.28
Tumor washout: tumor uptake relative to 1h ([2]; 4 h): 120%
Tumor washout: tumor uptake relative to 1h ([2]; 24 h): 80%
Bone uptake [2, 9]: 0.09 % i.A./g
Muscle uptake [2, 9]: 0.02 % i.A./g

— article PMC8199036, “Improved Tumor-Targeting with Peptidomimetic Analogs of Minigastrin ^177Lu-PP-F11N” (Cancers, 2021)
